The target of the assay is ribosome (40S ribosomal subunit) of RACK1-downregulated HeLa cells. In words: in vitro ribosome interaction assay (iRIA). The settings on record: parent: est. 1.1; read off a plot.

Results on 1 substance are retold here after publication PMC6234289.

For the substance “MBP-RACK1, wild type (from UniProt P63244) R36D; K38E”, the response amounted to 0.47 Abs450.
